Reference: patent US20190183976A1

Assays:
CXCR4-VN (human) = CXCR4-VN (human) (UniProt P61073); assay: BiFC, U-2 OS cells, CXCR4-VN & GPCRx-VC; score=(positive cells/total cells)x100
CXCR4 (human) = CXCR4 (human) (UniProt P61073); assay: cell-based or functional assay
CXCR4 (human), sequence (P61073 whole entry): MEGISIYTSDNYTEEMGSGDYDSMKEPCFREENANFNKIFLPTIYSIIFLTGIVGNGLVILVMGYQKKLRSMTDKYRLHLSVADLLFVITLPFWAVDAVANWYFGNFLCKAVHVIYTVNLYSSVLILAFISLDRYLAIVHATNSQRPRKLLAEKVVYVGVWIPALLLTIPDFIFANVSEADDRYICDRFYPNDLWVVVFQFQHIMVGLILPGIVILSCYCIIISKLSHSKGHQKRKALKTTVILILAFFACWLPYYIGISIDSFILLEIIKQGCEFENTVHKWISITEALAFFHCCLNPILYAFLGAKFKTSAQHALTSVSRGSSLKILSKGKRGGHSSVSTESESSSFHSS

CXCR4-VN (human), sequence (P61073 whole entry): as above
CCR5-VC, P51681 1-352 (receptor; other documents disagree on this pair), sequence (P51681 whole entry): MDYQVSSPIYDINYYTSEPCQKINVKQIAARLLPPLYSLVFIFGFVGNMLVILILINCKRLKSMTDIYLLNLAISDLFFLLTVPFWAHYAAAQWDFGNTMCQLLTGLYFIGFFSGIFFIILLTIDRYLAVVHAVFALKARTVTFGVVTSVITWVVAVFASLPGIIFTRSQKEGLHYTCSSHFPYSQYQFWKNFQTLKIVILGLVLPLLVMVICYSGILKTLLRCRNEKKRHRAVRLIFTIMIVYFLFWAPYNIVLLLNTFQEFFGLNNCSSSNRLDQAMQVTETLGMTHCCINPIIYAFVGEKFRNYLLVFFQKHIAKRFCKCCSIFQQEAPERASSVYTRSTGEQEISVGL

CCR5-VC, P51681 1-352 (receptor; other documents disagree on this pair)
BiFC score (CXCR4-VN (human)): 44

12G5 (antibody)
IC50 of Ca2+ response; MDA-MB-231 expressing CXCR4+ADRB2; + carvedilol 10 µM; CXCL12 20 nM + salmeterol 1 µM (CXCR4 (human)): 2.78 nM | IC50 of Ca2+ response; MDA-MB-231 expressing CXCR4+ADRB2; no carvedilol; CXCL12 20 nM + salmeterol 1 µM (CXCR4 (human)): 13.9 nM | IC50 of Ca2+ response; MDA-MB-231 expressing CXCR4 alone; CXCL12 20 nM + salmeterol 1 µM (CXCR4 (human)): 80.2 nM

TZ14011 (peptide)
IC50 of Ca2+ response; MDA-MB-231 expressing CXCR4+ADRB2; + carvedilol 10 µM; CXCL12 20 nM + salmeterol 1 µM (CXCR4 (human)): 0.02 nM | IC50 of Ca2+ response; MDA-MB-231 expressing CXCR4+ADRB2; no carvedilol; CXCL12 20 nM + salmeterol 1 µM (CXCR4 (human)): 17.8 nM | IC50 of Ca2+ response; MDA-MB-231 expressing CXCR4 alone; CXCL12 20 nM + salmeterol 1 µM (CXCR4 (human)): 23.9 nM | fold decrease of the IC50 of Ca2+ response in CXCR4-ADRB2 cells on co-treatment with carvedilol (CXCR4 (human)): 890 fold

BKT140 (peptide)
IC50 of Ca2+ response; MDA-MB-231 with CXCR4+ADCYAP1R1; CXCL12 20 nM + PACAP-38 1 nM; + M65 1 µM (CXCR4 (human)): 7.46 nM | IC50 of Ca2+ response; MDA-MB-231 with CXCR4+ADCYAP1R1; CXCL12 20 nM + PACAP-38 1 nM; + PACAP-(6-38) 1 µM (CXCR4 (human)): 19.6 nM | IC50 of Ca2+ response; MDA-MB-231 with CXCR4+ADCYAP1R1; CXCL12 20 nM + PACAP-38 1 nM; no ADCYAP1R1 inhibitor (CXCR4 (human)): 213 nM | IC50 of Ca2+ response; MDA-MB-231 with CXCR4+C5AR1; CXCL12 20 nM + C5a 0.03 nM; + W54011 10 µM (CXCR4 (human)): 9.72 nM | IC50 of Ca2+ response; MDA-MB-231 with CXCR4+C5AR1; CXCL12 20 nM + C5a 0.03 nM; no C5AR1 inhibitor (CXCR4 (human)): 118 nM | IC50 of Ca2+ response; MDA-MB-231 with CXCR4+CALCR; CXCL12 20 nM + calcitonin 100 nM; + CT-(8-32) (salmon) 10 µM (CXCR4 (human)): 15.6 nM | IC50 of Ca2+ response; MDA-MB-231 with CXCR4+CALCR; CXCL12 20 nM + calcitonin 100 nM; no CALCR inhibitor (CXCR4 (human)): 1040 nM
